Assay results as given in paper doi:10.1101/2023.10.24.563883.

Target: LPHN2-ICL1-Nluc (UniProt O95490)
Assay: FRET or BRET

LPHN2-ICL1-Nluc, sequence (O95490 26-1459): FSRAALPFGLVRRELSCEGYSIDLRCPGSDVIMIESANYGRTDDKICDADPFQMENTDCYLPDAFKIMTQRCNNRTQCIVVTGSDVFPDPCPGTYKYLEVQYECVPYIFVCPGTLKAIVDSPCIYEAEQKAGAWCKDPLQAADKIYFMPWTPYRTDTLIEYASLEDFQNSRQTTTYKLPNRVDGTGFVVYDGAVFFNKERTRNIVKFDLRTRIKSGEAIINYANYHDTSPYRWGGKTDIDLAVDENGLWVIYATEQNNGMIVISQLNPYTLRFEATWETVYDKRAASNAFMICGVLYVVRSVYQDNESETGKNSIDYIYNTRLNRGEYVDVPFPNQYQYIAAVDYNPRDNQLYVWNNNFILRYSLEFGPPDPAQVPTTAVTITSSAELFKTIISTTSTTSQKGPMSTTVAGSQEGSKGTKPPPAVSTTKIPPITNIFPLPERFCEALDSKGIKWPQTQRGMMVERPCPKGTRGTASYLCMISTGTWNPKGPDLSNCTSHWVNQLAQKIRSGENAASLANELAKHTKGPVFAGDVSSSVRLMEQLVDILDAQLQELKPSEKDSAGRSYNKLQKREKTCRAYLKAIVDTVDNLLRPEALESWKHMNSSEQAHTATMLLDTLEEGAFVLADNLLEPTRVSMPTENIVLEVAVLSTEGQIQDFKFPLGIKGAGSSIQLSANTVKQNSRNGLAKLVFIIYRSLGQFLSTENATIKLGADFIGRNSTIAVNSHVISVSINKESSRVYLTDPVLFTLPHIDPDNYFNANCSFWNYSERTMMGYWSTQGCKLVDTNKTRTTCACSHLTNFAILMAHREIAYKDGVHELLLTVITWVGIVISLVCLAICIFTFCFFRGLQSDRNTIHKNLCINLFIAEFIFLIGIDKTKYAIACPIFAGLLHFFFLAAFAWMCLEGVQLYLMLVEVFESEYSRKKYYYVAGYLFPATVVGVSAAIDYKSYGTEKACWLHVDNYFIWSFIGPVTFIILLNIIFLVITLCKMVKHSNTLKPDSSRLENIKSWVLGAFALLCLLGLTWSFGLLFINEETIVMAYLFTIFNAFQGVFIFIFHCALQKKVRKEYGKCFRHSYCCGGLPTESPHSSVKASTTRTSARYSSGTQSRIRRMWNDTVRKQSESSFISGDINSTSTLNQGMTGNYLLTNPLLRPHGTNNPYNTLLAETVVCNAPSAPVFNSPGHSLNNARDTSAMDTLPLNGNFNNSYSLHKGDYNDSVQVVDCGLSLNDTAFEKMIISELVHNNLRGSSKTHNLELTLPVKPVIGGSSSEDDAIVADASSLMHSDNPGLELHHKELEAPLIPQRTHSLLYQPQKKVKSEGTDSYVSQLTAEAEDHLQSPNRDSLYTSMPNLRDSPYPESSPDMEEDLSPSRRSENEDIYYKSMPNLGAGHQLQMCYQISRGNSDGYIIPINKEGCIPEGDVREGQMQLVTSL

With “TMC1-C-YFP (from UniProt Q8TDI8 1-760) (natural protein)” the EC50 of force for the increase of the BRET signal was 5.2 pN and the stoichiometry N (TMC1 per LPHN2) was 2.
